Data taken from publication PMC6395645.

How the values were obtained:
soluble type-I collagen [1] = target: soluble type-I collagen (UniProt P02454); assay: ELISA; collagen-binding ELISA; soluble type-I collagen immobilised on plates, salivary gland homogenates of 20 WT mosquitoes applied 1 h at room temperature; quantified against Trx-AAPPex1-4
soluble type-I collagen [2] = target: soluble type-I collagen (UniProt P02454); assay: ELISA; collagen-binding ELISA; soluble type-I collagen immobilised on plates, saliva of 20 TG mosquitoes (holds mDsRed-8H7scFv) applied 1 h at room temperature; quantified against Trx-AAPPex1-4
soluble type-I collagen [3] = target: soluble type-I collagen (UniProt P02454); assay: ELISA; collagen-binding ELISA; soluble type-I collagen immobilised on plates (7.5 ug/ml, 100 ul/well), saliva of 20 WT mosquitoes applied 1 h at room temperature; quantified against Trx-AAPPex1-4
soluble type-I collagen [4] = target: soluble type-I collagen (UniProt P02454); assay: ELISA; collagen-binding ELISA; soluble type-I collagen immobilised on plates, salivary gland homogenates of 20 TG mosquitoes (hold mDsRed-8H7scFv) applied 1 h at room temperature; quantified against Trx-AAPPex1-4

soluble type-I collagen, sequence (P02454 152-1207, chain 1 of 2): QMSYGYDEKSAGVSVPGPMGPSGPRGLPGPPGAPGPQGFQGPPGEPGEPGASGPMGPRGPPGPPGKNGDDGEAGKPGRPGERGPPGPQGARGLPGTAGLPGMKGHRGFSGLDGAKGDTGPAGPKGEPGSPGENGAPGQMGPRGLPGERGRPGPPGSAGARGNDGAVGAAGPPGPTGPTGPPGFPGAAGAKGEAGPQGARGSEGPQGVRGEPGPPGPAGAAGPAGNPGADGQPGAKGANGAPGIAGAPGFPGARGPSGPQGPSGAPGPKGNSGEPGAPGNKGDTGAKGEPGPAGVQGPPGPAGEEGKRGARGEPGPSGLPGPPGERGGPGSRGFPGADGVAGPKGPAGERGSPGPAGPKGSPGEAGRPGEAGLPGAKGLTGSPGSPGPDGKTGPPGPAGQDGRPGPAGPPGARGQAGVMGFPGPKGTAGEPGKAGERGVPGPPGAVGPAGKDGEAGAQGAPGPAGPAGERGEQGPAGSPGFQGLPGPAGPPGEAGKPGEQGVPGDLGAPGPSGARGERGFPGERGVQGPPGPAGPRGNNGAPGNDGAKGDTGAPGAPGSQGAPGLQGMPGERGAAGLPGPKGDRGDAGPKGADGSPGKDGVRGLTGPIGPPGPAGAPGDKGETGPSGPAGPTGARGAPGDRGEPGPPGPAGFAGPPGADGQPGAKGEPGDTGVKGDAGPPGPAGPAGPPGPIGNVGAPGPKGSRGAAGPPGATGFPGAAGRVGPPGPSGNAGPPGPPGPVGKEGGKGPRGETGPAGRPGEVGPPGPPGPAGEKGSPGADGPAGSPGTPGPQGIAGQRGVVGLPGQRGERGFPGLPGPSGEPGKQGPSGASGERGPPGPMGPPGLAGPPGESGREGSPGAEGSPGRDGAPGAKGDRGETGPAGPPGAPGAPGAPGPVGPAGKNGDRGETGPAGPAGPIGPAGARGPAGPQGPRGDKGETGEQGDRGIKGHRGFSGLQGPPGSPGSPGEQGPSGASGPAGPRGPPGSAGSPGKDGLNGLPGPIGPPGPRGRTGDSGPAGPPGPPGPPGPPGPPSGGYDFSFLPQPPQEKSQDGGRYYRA
soluble type-I collagen, sequence (P02466 86-1125, chain 2 of 2, further chain): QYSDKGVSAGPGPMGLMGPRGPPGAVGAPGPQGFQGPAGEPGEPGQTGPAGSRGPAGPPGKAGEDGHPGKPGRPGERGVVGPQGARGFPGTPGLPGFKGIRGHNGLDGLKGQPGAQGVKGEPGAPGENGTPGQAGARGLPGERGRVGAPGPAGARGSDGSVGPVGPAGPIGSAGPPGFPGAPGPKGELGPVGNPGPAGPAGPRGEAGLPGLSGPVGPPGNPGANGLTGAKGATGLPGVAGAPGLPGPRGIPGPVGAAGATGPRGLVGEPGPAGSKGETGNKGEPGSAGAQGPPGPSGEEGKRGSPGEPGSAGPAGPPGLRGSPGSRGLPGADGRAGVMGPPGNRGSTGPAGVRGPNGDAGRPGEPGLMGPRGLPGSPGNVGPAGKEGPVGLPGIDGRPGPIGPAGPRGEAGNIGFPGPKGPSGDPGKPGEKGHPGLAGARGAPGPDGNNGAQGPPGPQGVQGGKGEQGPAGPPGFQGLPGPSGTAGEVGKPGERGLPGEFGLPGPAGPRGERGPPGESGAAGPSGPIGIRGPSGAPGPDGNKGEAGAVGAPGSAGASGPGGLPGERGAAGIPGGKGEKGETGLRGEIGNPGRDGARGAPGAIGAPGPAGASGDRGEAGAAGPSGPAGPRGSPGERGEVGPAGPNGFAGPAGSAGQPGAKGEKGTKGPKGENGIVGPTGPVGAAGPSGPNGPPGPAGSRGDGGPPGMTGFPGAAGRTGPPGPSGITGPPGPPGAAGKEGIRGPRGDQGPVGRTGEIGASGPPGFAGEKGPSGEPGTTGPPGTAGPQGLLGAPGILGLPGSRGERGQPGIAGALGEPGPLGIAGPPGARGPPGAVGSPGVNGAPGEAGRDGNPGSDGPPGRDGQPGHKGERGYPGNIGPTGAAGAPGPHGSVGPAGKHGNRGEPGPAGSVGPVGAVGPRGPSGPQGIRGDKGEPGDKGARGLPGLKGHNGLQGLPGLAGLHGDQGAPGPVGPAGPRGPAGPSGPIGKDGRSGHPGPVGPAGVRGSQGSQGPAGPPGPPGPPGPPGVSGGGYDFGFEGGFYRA

Which results are given for “Anopheline antiplatelet protein (AAPP) (from UniProt Q7YT37 20-269) (natural protein)”?
amount of AAPP capable of binding to collagen (salivary glands of 20 WT mosquitoes) (soluble type-I collagen [1]): 233 ng; amount of AAPP capable of binding to collagen, with mDsRed-8H7scFv present (saliva of 20 mosquitoes of each TG line) (soluble type-I collagen [2]): < 0.069 ng; amount of AAPP capable of binding to collagen (saliva of 20 WT mosquitoes) (soluble type-I collagen [3]): 28.4 ng; amount of AAPP capable of binding to collagen, with mDsRed-8H7scFv present (salivary glands of 20 TG-03 mosquitoes) (soluble type-I collagen [4]): 11.4 ng; amount of AAPP capable of binding to collagen, with mDsRed-8H7scFv present (salivary glands of 20 TG-30 mosquitoes) (soluble type-I collagen [4]): 9.95 ng; amount of AAPP capable of binding to collagen, with mDsRed-8H7scFv present (salivary glands of 20 TG-37 mosquitoes) (soluble type-I collagen [4]): 10.5 ng
